The results in this text go back to PMC7540344.

Assay [1] has as its target YC‐StFDL1a (Solanum tuberosum cv. Desiree).
A further assay deals with YC‐St14‐3‐3a. The assay is described as follows: bimolecular fluorescence complementation (BiFC). Particulars: random fields from maximum intensity projections (n ≥ 10); opposing half-leaves, same imaging conditions; read off a plot.
A further assay has as its target YC‐StFD (UniProt A0A1E1F9A3). The experiment in a line: bimolecular fluorescence complementation (BiFC). Particulars: random fields from maximum intensity projections (n ≥ 10); opposing half-leaves, same imaging conditions; read off a plot.
A further assay concerns the target YC‐StFDL1a (UniProt A0A1E1F9A2). The experiment in a line: bimolecular fluorescence complementation (BiFC). As to conditions: random fields from maximum intensity projections (n ≥ 10); opposing half-leaves, same imaging conditions; read off a plot.
Another assay has as its target YC‐St14‐3‐3f. The experiment in a line: bimolecular fluorescence complementation (BiFC). Particulars: random fields from maximum intensity projections (n ≥ 10); opposing half-leaves, same imaging conditions; read off a plot.
For the next assay, the target named is YC‐StCEN. The assay is described as follows: bimolecular fluorescence complementation (BiFC). As to conditions: random fields from maximum intensity projections (n ≥ 10); opposing half-leaves, same imaging conditions; read off a plot.

Chain of UniProt A0A1E1F9A3 (A0A1E1F9A3 entry or part of it): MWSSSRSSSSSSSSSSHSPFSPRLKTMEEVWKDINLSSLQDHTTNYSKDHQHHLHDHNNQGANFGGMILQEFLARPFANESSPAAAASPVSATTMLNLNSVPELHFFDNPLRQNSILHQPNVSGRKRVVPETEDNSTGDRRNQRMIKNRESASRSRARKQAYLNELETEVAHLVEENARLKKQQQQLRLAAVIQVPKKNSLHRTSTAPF
Chain of UniProt A0A1E1F9A2 (A0A1E1F9A2 entry or part of it): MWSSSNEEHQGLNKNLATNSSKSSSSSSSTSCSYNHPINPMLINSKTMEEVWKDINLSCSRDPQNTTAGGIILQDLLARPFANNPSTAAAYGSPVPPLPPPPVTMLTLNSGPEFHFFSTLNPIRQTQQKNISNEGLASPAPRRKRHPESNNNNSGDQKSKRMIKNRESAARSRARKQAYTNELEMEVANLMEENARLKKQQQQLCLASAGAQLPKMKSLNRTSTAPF

With “StSP6A (tuberigen, FT orthologue of potato), 35S-driven GFP fusion (natural protein)”, in assay [1], the luciferase activity of the p6A::LUC reporter (2.64 kb StSP6A promoter) in N. benthamiana leaves co-expressing StSP6A and estradiol-induced StFDL1a, against the reporter alone was found to be 3 fold.

YN‐StCEN R64K; P96L; F103A; R132K: the ratio to parent was 1.3 with YC‐St14‐3‐3a, 2.7 with YC‐StFD, 2.8 with YC‐StFDL1a and 1.2 with YC‐St14‐3‐3f.

On to “YN‐StFDL1a (from UniProt A0A1E1F9A2) T224A”, for which the ratio to parent in the assay with YC‐StCEN was found to be 3.4.
